B1: REGN10987 (antibody, V domains shown)
VH: QVQLVESGGGVVQPGRSLRLSCAASGFTFSNYAMYWVRQAPGKGLEWVAVISYDGSNKYYADSVKGRFTISRDNSKNTLYLQMNSLRTEDTAVYYCASGSDYGDYLLVYWGQGTLVTVSS
VL: QSALTQPASVSGSPGQSITISCTGTSSDVGGYNYVSWYQQHPGKAPKLMIYDVSKRPSGVSNRFSGSKSGNTASLTISGLQSEDEADYYCNSLTSISTWVFGGGTKLTVL
notes: source: CHO cells, transfected, recombinant fully human antibody; copies: 2 + 2
B2: REGN10933 (antibody, V domains shown)
VH: QVQLVESGGGLVKPGGSLRLSCAASGFTFSDYYMSWIRQAPGKGLEWVSYITYSGSTIYYADSVKGRFTISRDNAKSSLYLQMNSLRAEDTAVYYCARDRGTTMVPFDYWGQGTLVTVSS
VL: DIQMTQSPSSLSASVGDRVTITCQASQDITNYLNWYQQKPGKAPKLLIYAASNLETGVPSRFSGSGSGTDFTFTISGLQPEDIATYYCQQYDNLPLTFGGGTKVEIK
notes: as for B1

Key:
[1] = molecular target: T1, RBD of SARS-CoV-2 spike (construct not told: ACE2 blocking, cross-competition and HDX-MS experiments) (SARS-CoV-2, UniProt P0DTC2); test: cross-competition binding assay; cross-competition of the nine most-potent neutralizing antibodies for binding to RBD (fig. S7)
T1 construct: also called spike protein RBD

[2] = molecular target: T1, RBD of SARS-CoV-2 spike (construct not …); test: HDX-MS; hydrogen-deuterium exchange mass spectrometry of spike protein RBD with each of nine antibodies; conditions: both partners purified

| Binder | binding result [1] | binding result [2] |
| --- | --- | --- |
| B1 | binds |  |
| B2 |  | binds |
